Columns and labels:
Test in all cases: SPOT array
[1] = target: Rvs167, P39743; conditions: median of control spots 2707
[2] = target: T1, Bbc1, P47068; conditions: median of control spots 796
T1 sequence (P47068 1-78, looked up): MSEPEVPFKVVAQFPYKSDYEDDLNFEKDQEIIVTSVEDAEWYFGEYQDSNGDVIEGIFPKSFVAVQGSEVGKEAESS

[3] = target: T2, Lsb1, P53281; conditions: median of control spots 388
T2 sequence (P53281 45-122, looked up): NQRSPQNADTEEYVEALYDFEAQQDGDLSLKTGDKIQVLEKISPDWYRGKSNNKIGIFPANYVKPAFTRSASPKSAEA

[4] = target: T3, Cyk3, Q07533; conditions: median of control spots 1451
T3 sequence (Q07533 1-83, looked up): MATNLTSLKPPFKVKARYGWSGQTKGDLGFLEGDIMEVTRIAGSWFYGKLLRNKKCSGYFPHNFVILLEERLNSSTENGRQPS

[5] = target: T4, Pex13, P80667; conditions: median of control spots 1341
T4 sequence (P80667 295-386, looked up): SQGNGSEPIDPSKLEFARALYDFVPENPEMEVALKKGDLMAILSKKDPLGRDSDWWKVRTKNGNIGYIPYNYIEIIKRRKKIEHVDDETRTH

[6] = target: T5, Boi1, P38041; conditions: median of control spots 1162
T5 sequence (P38041 1-86, looked up): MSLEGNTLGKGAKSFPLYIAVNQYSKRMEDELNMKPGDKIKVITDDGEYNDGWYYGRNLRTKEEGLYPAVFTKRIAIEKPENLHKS

[7] = target: T6, Myo5, Q04439; conditions: median of control spots 471
T6 sequence (Q04439 1072-1160, looked up): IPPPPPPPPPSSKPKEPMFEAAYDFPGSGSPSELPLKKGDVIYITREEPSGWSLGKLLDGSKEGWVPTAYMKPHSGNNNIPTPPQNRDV

[8] = target: T7, Lsb4, P32793; conditions: median of control spots 397
T7 sequence (P32793 402-468, looked up): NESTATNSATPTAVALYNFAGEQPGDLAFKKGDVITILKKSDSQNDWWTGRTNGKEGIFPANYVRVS

[9] = target: T8, Sla1-3, P32790; conditions: median of control spots 5475
T8 sequence (P32790 344-424, looked up): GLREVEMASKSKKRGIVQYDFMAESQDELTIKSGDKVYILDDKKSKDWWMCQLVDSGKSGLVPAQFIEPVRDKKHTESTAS

[10] = target: Bem1-2, P29366; conditions: median of control spots 4347
Chain of Bem1-2, P29366 (P29366 139-227): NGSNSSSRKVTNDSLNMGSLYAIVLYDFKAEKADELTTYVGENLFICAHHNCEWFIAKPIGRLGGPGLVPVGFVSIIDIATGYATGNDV

[11] = target: Myo3, P36006; conditions: median of control spots 468
[12] = target: T9, Cdc25, P04821; conditions: median of control spots 969
T9 sequence (P04821 50-136, looked up): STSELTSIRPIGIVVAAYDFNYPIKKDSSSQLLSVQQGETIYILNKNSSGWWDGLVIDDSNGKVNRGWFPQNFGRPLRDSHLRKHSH

[13] = target: Sho1, P40073; conditions: median of control spots 1148
Chain of Sho1, P40073 (P40073 287-367): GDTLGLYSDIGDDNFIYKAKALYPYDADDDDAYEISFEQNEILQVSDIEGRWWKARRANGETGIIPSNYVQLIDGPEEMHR

[14] = target: T10, Abp1, P15891; conditions: median of control spots 935
T10 sequence (P15891 535-592, looked up): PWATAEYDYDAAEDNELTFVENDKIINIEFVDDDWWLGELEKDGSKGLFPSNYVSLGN

[15] = target: T11, Pin3, Q06449; conditions: median of control spots 2171
T11 sequence (Q06449 53-122, looked up): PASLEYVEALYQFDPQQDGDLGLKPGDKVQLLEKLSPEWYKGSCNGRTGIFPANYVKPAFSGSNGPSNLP

[16] = target: T12, Nbp2, Q12163; conditions: median of control spots 357
T12 sequence (Q12163 103-180, looked up): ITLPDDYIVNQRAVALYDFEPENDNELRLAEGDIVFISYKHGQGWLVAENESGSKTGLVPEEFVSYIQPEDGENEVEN

[17] = target: GST; conditions: median of control spots 978
[18] = target: T13, Bzz1-2, P38822; conditions: median of control spots 4538
T13 sequence (P38822 568-633, looked up): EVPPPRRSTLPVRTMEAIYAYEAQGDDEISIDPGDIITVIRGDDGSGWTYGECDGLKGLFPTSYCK

[19] = target: T14, Boi2, P39969; conditions: median of control spots 1161
T14 sequence (P39969 32-116, looked up): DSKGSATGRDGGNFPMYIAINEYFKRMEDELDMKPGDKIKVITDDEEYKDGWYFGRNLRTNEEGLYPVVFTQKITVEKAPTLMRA

[20] = target: T15, Hof1, Q05080; conditions: median of control spots 4086
T15 sequence (Q05080 590-669, looked up): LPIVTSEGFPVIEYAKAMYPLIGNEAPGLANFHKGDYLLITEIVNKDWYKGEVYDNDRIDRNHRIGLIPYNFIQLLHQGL

[21] = target: T16, Bud14, P27637; conditions: median of control spots 956
T16 sequence (P27637 247-328, looked up): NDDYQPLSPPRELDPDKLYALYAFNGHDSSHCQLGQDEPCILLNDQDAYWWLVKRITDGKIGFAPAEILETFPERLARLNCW

[22] = target: T17, Bzz1-1, P38822; conditions: median of control spots 4446
T17 sequence (P38822 478-572, looked up): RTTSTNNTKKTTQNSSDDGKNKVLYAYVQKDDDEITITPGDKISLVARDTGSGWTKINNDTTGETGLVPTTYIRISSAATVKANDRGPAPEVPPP

[23] = target: T18, Hse1, P38753; conditions: median of control spots 1727
T18 sequence (P38753 208-285, looked up): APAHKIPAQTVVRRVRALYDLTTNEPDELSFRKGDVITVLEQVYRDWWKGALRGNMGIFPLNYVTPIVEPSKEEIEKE

[24] = target: Bem1-1, P29366; conditions: median of control spots 4282
Chain of Bem1-1, P29366 (P29366 55-141): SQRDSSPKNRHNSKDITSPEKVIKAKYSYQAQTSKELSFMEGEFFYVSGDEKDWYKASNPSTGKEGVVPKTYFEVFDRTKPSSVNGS

[25] = target: T19, Lsb3, P43603; conditions: median of control spots 406
T19 sequence (P43603 385-451, looked up): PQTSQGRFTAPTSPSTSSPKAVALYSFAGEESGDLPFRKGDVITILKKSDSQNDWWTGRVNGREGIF

[26] = target: T20, Fus1, P11710; conditions: median of control spots 1200
T20 sequence (P11710 432-512, looked up): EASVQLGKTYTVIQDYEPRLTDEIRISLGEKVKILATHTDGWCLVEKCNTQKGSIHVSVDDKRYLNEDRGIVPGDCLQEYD

[27] = target: T21, Sla1-2, P32790; conditions: median of control spots 712
T21 sequence (P32790 60-140, looked up): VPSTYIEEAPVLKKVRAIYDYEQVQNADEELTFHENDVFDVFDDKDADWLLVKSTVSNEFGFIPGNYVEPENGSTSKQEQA

Chain of Rvs167, P39743 (P39743 419-482): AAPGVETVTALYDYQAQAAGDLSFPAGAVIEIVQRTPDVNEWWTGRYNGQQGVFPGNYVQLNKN

B1: unnamed (peptide)
chain: LKHGWKPLRPIKLIS
Q: With B1 as the binder, how does the SPOT intensity [1] read?
A: 0

Q: What about the SPOT intensity [2] of the same binder?
A: 14

Q: And the SPOT intensity [3]?
A: 0

Q: And the SPOT intensity [4]?
A: 0

Q: What about the SPOT intensity [5] of the same binder?
A: 17

Q: What about the SPOT intensity [6] of the same binder?
A: 0

Q: What about the SPOT intensity [7] of the same binder?
A: 0

Q: And the SPOT intensity [8]?
A: 4

Q: What about the SPOT intensity [9] of the same binder?
A: 16

Q: And the SPOT intensity [10]?
A: 7

Q: What about the SPOT intensity [11] of the same binder?
A: 0

Q: What about the SPOT intensity [12] of the same binder?
A: 14

Q: And the SPOT intensity [13]?
A: 55

Q: And the SPOT intensity [14]?
A: 75

Q: And the SPOT intensity [15]?
A: 3

Q: And the SPOT intensity [16]?
A: 2

Q: What about the SPOT intensity [17] of the same binder?
A: 0

Q: And the SPOT intensity [18]?
A: 1

Q: What about the SPOT intensity [19] of the same binder?
A: 0

Q: What about the SPOT intensity [20] of the same binder?
A: 0

Q: What about the SPOT intensity [21] of the same binder?
A: 8

Q: What about the SPOT intensity [22] of the same binder?
A: 0

Q: And the SPOT intensity [23]?
A: 147

Q: What about the SPOT intensity [24] of the same binder?
A: 0

Q: What about the SPOT intensity [25] of the same binder?
A: 0

Q: What about the SPOT intensity [26] of the same binder?
A: 4

Q: What about the SPOT intensity [27] of the same binder?
A: 0

B2: unnamed (peptide)
chain: NMLKKKPLKKPLKRF
Q: Which results are given for B2?
A: SPOT intensity [1]: 0; SPOT intensity [2]: 160; SPOT intensity [3]: 0; SPOT intensity [4]: 2; SPOT intensity [5]: 18; SPOT intensity [6]: 11; SPOT intensity [7]: 1; SPOT intensity [8]: 1; SPOT intensity [9]: 36; SPOT intensity [10]: 30; SPOT intensity [11]: 24; SPOT intensity [12]: 68; SPOT intensity [13]: 228; SPOT intensity [14]: 303; SPOT intensity [15]: 34; SPOT intensity [16]: 66; SPOT intensity [17]: 6; SPOT intensity [18]: 46; SPOT intensity [19]: 1; SPOT intensity [20]: 14; SPOT intensity [21]: 33; SPOT intensity [22]: 0; SPOT intensity [23]: 187; SPOT intensity [24]: 0; SPOT intensity [25]: 2; SPOT intensity [26]: 36; SPOT intensity [27]: 2

B3: unnamed (peptide)
chain: KRRAPPPVPKKPSSR
Q: What does the source list for B3?
A: SPOT intensity [1]: 165; SPOT intensity [2]: 233; SPOT intensity [3]: 1850; SPOT intensity [4]: 4; SPOT intensity [5]: 47; SPOT intensity [6]: 2; SPOT intensity [7]: 144; SPOT intensity [8]: 150; SPOT intensity [9]: 4640; SPOT intensity [10]: 961; SPOT intensity [11]: 454; SPOT intensity [12]: 9; SPOT intensity [13]: 370; SPOT intensity [14]: 626; SPOT intensity [15]: 14; SPOT intensity [16]: 751; SPOT intensity [17]: 3; SPOT intensity [18]: 4500; SPOT intensity [19]: 1; SPOT intensity [20]: 6; SPOT intensity [21]: 9; SPOT intensity [22]: 1320; SPOT intensity [23]: 412; SPOT intensity [24]: 1; SPOT intensity [25]: 389; SPOT intensity [26]: 10; SPOT intensity [27]: 0
